Source: patent publication US7101851 (dated 2006)
Bridges are numbered along the chain shown (N, C = ends). Where no end group is shown, it is not given here.

Experiments:
[1] = molecular target: T1, extracellular domain of the alpha subunit of the human FcεRI (aa 1-176), produced in baculovirus infected … (human, UniProt P12319 26-201, N-linked carbohydrate (NAG on Asn21 seen in the crystal); derivatised with PDEA for thiol coupling to the chip in the biosensor assay); assay: SPR biosensor (BIAcore), peptide over immobilized FcεRIα, steady-state saturation curve, 4-parameter fit
T1 construct: range 1-176; Residues 1-176 are probably counted without the signal peptide; also called FcεRIα; soluble FcεRI
T1 sequence (looked up): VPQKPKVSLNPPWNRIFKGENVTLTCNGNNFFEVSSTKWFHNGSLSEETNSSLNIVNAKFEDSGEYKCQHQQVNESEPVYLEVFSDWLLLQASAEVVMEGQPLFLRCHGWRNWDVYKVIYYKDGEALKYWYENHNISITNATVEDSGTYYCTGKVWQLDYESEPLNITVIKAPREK
Description: *peptide is a dimer. SEQ ID NO: describes each monomer of the dimer. "ava" = amino-valeric acid Several peptides were also tested in a direct-binding assay using a surface plasmon resonance biosensor (Lofas & Johnsson, *J. Chem. Soc. Commun.* 21, 1526–1528 (1990)). FcεRIα, produced in baculovirus infected insect cells, was immobilized by the surface thiol method (BIAcore Methods Manual Supplement 5a, BIAcore, Inc., Piscataway, N.J.). Briefly, receptor was reacted with 2-(2-pyridinyldithio)ethaneamine hydrochloride (PDEA; Natake & Swaisgood, *J. Biochem.* 74, 77–86 (1973)), desalted into 10 mM sodium acetate (pH 4.8) and stored in aliquots at −80° C. Thawed PDEA-receptor was injected over carboxymethyl-dextran (B1 or CM5, BIAcore, Inc.) biosensor chips preactivated with N-ethyl-N'-(3-dimethylaminopropyl)-carbodiimide hydrochloride (EDC) and N-hydroxysuccinimide (NHS), cystamine, and DTT. Following coupling, reactive groups on the chip were quenched with PDEA and ethanolamine. Serial dilutions of peptide in running buffer (phosphate-buffered saline containing 0.05% Tween-20, 0.01% sodium azide) were injected over the immobilized receptor, and the net amount of peptide bound at steady-state was measured as the net change in response (RU) at a point just prior to termination of peptide injection, compared to a running-buffer baseline. Binding affinities (Table 10) are reported as the midpoint ($EC50$) of a 4-parameter fit to the peptide saturation curve. In the case of IGE134 (SEQ ID NOS:), the value shown indicates the Kd calculated from the rate constants, $kon$ and $koff$. The results of binding assays (Table 8) correlate well with those of inhibition assays (Table 7).

[2] = molecular target: T2, alpha subunit of the human FcεRI receptor expressed on cells (human, UniProt P12319 26-257); assay: IgE inhibition assay (Table 9)
T2 construct: whole, on cells; on rat basophil RBL-48 cells in the histamine release assay; also called CHO FcεRI+ cells; cell surface expressed FcεRI
T2 sequence (looked up): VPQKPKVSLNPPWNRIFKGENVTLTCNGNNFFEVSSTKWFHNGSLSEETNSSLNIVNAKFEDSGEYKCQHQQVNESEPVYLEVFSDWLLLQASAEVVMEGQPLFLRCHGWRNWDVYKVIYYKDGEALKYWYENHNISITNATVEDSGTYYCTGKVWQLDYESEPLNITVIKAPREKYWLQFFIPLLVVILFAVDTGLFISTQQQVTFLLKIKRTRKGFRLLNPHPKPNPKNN

FcεRI-IgG = molecular target: T3, FcεRI-IgG (UniProt P12319 26-205); assay: competitive phage ELISA: g3 peptide-phage on immobilized FcεRI-IgG, soluble FcεRI-IgG titrated
T3 construct: extracellular domain; Produced from CHO cells (Genentech); also called FcεRI-Fc; bivalent fusion protein of the extracellular domain of FcεRI and the Fc domain of IgG; not shown: Fc domain of IgG
T3 sequence (looked up): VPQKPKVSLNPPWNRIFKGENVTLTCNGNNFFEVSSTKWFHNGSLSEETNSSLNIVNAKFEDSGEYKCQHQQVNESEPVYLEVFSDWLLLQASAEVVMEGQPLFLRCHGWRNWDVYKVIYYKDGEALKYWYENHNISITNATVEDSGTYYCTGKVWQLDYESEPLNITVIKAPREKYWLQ
From the text: Peptide sequences from g8p-fused phage clones that specifically bound FcεRI-IgG were transferred onto a g3p-display format for monovalent phage display (Bass et al., *Proteins* 8, 309–314 (1990); Lowman et al., *Biochemistry* 30, 10832–10838 (1991)). An oligonucleotide encoding for each desired peptide with additional 5' and 3' base pair that overlapped with g3 was synthesized. This oligonucleotide was annealed with a g3 single stranded DNA phagemid template. The mutagenesis reaction was transformed into XL-1 Blue *E. coli* and plated on LB-carb+ agar plates. Individual colonies were propagated in 5 mL of 2YT broth, tetracycline, carbenicillin and VCSM13 helper phage (Stratagene). Single stranded DNA was isolated from the purified phage particles and sequenced to confirm the insertion of the phage peptide sequence. 25 mL preparations of g3 phage clones were propagated overnight and purified by PEG precipitation. After resuspension of the phage pellet in 1.0 mL of PBS, it was serially diluted 1/3 and incubated with immobilized FcεRI-IgG 2 ug/mL in a 96 well Maxisorp microtiter plate for 1 hour at room temperature. The wells were washed 10× with PBST then incubated with 100 uL of anti M13 phage HRP as described above. An OD(492) value corresponding to less than 50% binding was selected and the purified phage clones were diluted to yield this normalized level of signal. […] The mixture was then transferred to 96 well microtiter dishes containing immobilized FcεRI-IgG. After a 1-hour incubation period, the plates were washed 10 times, incubated with anti M13-HRP conjugated antibody and developed with OPD as described above.

B1: IGE124 (peptide)
peptide: VPCPELCYVGGKALCPDVCYV-NH2
modifications: disulfide (positions not given here); also: oxidized, disulfide-bonded Cys, pairing not given here
**Q.** With B1 as the binder, how does the EC50 [1] read?
**A.** 890 nM

**Q.** CPHFCYFGAELCPDVCY-NH2 (disulfide (positions not given here)) [IGE170] was tested. Which “fold difference in activity against IGE167” value [2] did it give?
**A.** ≤ 2 fold

B2: g3b.8 peptide-phage (peptide)
peptide: GRTECTEGPWGWVCMAAD
modifications: not fully specified (bridges); cysteine pairing not given here
notes: not shown: fused to M13 gene-3 protein (g3p) on phage
**Q.** B2 was tested. Which IC50 (FcεRI-IgG) did it give?
**A.** 14 nM

**Q.** How did the “fold reduced activity against its control peptide” value [2] turn out when IVCARLCYVGGKALCPDVCYV-NH2 (disulfide 3-15, 7-19, P4A of IGE120) [IGE127] was run?
**A.** 50 fold

B3: IGE126 (peptide)
peptide: VTCPRWCYVGGKALCPDVCYV-NH2
modifications: disulfide (positions not given here); also: oxidized, disulfide-bonded Cys, pairing not given here
**Q.** With B3 as the binder, how does the EC50 [1] read?
**A.** 380 nM

**Q.** With VQCPHFCYFGGAELCPGVCYV-NH2 (disulfide 3-15, 7-19) [IGE136] as the binder, how does the “fold difference in activity against IGE135” value [2] read?
**A.** ~2 fold

B4: IGE132 (peptide)
peptide: VQCPHFCYVGGHALCPDVCYVGR-OH
modifications: cysteine pairing not given here
notes: produced biosynthetically as a fusion to the Z-domain of protein A and cleaved off with trypsin; free C-terminus
**Q.** With B4 as the binder, how does the EC50 [1] read?
**A.** 680 nM

**Q.** For Ac-CPHFCYFGAELCPDVCY-NH2 (disulfide (positions not given here)) [IGE171], which “fold difference in activity against IGE167” value [2] is on record?
**A.** ≤ 2 fold

B5: IGE131 (peptide)
peptide: VQCPHFCYVGGKVQCPHFCYV-NH2
modifications: disulfide (positions not given here); not fully specified (bridges); also: oxidized, disulfide-bonded Cys, pairing not given here
**Q.** B5 was tested. Which EC50 [1] did it give?
**A.** 2300 nM

B6: IGE131 (peptide)
peptide: VQCPHFCYVGGKVQCPHFCYV-NH2
modifications: disulfide 3-15, 7-19
notes: The text speaks of it as D17H against IGE122
**Q.** Which “fold reduced activity against IGE122” value [2] does the source give for B6 here?
**A.** > 10 fold

B7: IGE155 (peptide)
peptide: CPHFCYELDYELCPDVCY-NH2
modifications: disulfide (positions not given here); also: two intramolecular disulfide bonds, pairing not given here
**Q.** How did the “fold difference in activity against IGE134” value [2] turn out when B7 was run?
**A.** ≤ 2 fold

B8: g3b.6 peptide-phage (peptide)
peptide: GRAQCTEGPWGWVCMAAD
modifications: not fully specified (bridges); cysteine pairing not given here
notes: as for B2
**Q.** For B8, which IC50 (FcεRI-IgG) is on record?
**A.** 16 nM

B9: IGE150 (peptide)
peptide: VQCPHFCYVGGKALCPDVCDV-NH2
modifications: disulfide (positions not given here); also: two intramolecular disulfide bonds, pairing not given here
notes: Y20D of IGE122
**Q.** How did the “fold loss in activity” value [2] turn out when B9 was run?
**A.** ~5 fold

B10: IGE130 (peptide)
peptide: ALCPDVCYVGGKVQCPHFCYV-NH2
modifications: disulfide 7-15, 3-19; N-terminus assumed
SMILES: CC(C)C[C@H](NC(=O)[C@H](C)N)C(=O)N[C@H]1CSSC[C@@H](C(=O)N[C@@H](Cc2ccc(O)cc2)C(=O)N[C@H](C(N)=O)C(C)C)NC(=O)[C@H](Cc2ccccc2)NC(=O)[C@H](Cc2c[nH]cn2)NC(=O)[C@@H]2CCCN2C(=O)[C@@H]2CSSC[C@H](NC(=O)[C@H](C(C)C)NC(=O)[C@H](CC(=O)O)NC(=O)[C@@H]3CCCN3C1=O)C(=O)N[C@@H](Cc1ccc(O)cc1)C(=O)N[C@@H](C(C)C)C(=O)NCC(=O)NCC(=O)N[C@@H](CCCCN)C(=O)N[C@@H](C(C)C)C(=O)N[C@@H](CCC(N)=O)C(=O)N2
**Q.** How did the EC50 [1] turn out when B10 was run?
**A.** 250 nM

B11: g3b.4 peptide-phage (peptide)
peptide: VMPTCTEGPWGWVCMAAD
modifications: not fully specified (bridges); cysteine pairing not given here
notes: as for B2
**Q.** For B11, which IC50 (FcεRI-IgG) is on record?
**A.** 7 nM

B12: g3b.5 peptide-phage (peptide)
peptide: AMAQCTEGPWGWVCMAAD
modifications: not fully specified; cysteine pairing not given here
notes: as for B2
**Q.** B12 was tested. Which IC50 (FcεRI-IgG) did it give?
**A.** 10 nM

B13: IGE142 (peptide)
peptide: VQCAHFCYVGGHALCPDVCYVGR
modifications: disulfide (positions not given here); also: two intramolecular disulfide bonds, pairing not given here
notes: P4A of IGE132; made in E. coli as a Z-domain fusion and cleaved with trypsin
**Q.** For B13, which “fold reduced activity against its control peptide” value [2] is on record?
**A.** > 100 fold

**Q.** With IVCPRLCYELDYELCPDVCYV-NH2 (disulfide 3-15, 7-19) [IGE141] as the binder, how does the “fold difference in activity against IGE120” value [2] read?
**A.** 2 fold

B14: g3b.7 peptide-phage (peptide)
peptide: DLPACTEGPWGWVCMAAD
modifications: not fully specified; cysteine pairing not given here
notes: as for B2
**Q.** With B14 as the binder, how does the IC50 (FcεRI-IgG) read?
**A.** 9 nM

B15: IGE128 (peptide)
peptide: KSCPLWCYVGGKALCPDVCYV-NH2
modifications: disulfide (positions not given here); not fully specified (bridges); also: oxidized, disulfide-bonded Cys, pairing not given here
**Q.** Which EC50 [1] does the source give for B15 here?
**A.** 240 nM

B16: g3b.1 peptide-phage (peptide)
peptide: NLPRCTEGPWGWVCMAAD
modifications: disulfide 5-14 (inferred); not fully specified
notes: as for B2
**Q.** Which IC50 (FcεRI-IgG) does the source give for B16 here?
**A.** 13 nM

B17: g3b.3 peptide-phage (peptide)
peptide: NLPTCTEGPWGWVCMAAD
modifications: not fully specified (bridges); cysteine pairing not given here
notes: as for B2
**Q.** For B17, which IC50 (FcεRI-IgG) is on record?
**A.** 7 nM
